# In patent US20210196796A1 (SYNTHEKINE, published 2021):
# Changes are numbered by the printed parent chain. Names and notes keep the numbering of the source.
# T1: orthogonal hCD122 receptor (hoRb), hCD122 with H133D and Y134F (human, UniProt P14784 27-550)
# T1 sequence: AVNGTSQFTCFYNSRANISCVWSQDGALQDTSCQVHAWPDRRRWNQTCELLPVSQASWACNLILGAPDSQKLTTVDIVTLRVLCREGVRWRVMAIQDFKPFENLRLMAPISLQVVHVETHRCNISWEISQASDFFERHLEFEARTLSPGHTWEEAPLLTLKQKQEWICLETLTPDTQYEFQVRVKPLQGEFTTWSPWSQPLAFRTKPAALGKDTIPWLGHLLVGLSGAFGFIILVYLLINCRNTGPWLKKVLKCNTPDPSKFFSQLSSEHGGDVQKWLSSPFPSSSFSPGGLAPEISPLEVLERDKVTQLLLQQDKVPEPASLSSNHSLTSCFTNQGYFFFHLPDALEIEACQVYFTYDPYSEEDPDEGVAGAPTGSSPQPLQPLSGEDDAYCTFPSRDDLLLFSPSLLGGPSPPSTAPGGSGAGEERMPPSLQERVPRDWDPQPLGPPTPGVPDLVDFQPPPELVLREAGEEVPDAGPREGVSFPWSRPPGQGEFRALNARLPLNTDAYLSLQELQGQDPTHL
# B1: ΔL19, SQ_LKA (ligand)
# chain: APTSSSTKKTQLQLSQLLLLKAILNGINNYKNPKLTRMLTFKFYMPKKATELKHLQCLEEELKPLEEVLNLAQSKNFHLRPRDLISNINVIVLELKGSETTFMCEYADETATIVEFLNRWITFCQSIISTLT
# B2: ΔD20, SQV_KA (ligand)
# chain: B1 chain with L19V
# B3: SQILKA (ligand)
# chain: APTSSSTKKTQLQLSQLLILLKAILNGINNYKNPKLTRMLTFKFYMPKKATELKHLQCLEEELKPLEEVLNLAQSKNFHLRPRDLISNINVIVLELKGSETTFMCEYADETATIVEFLNRWITFCQSIISTLT
# B4: T3E, SQVLKA (ligand)
# chain: B3 chain with T3E, I19V
# B5: T3N, SQVLKA (ligand)
# chain: B3 chain with T3N, I19V
# B6: T3Q, SQVLKA (ligand)
# chain: B3 chain with T3Q, I19V
# B7: SQVSKA (ligand)
# chain: B3 chain with I19V, L20S
# B8: T3G, SQVLKA (ligand)
# chain: B3 chain with T3G, I19V
# Molecular target: T1, orthogonal hCD122 receptor (hoRb), …
# Assay: cell-based or functional assay
# Throughout, for Relative Proliferation Fold Change 3F8 1:10: reference of the scale not given here.
# Throughout, for Relative Proliferation Fold Change 3F8 1:2: reference of the scale not given here.
# Throughout, for Relative Proliferation Fold Change 3F8 1:50: reference of the scale not given here.
# Throughout, for Relative Proliferation Fold Change NKL 1:10: reference of the scale not given here.
# Throughout, for Relative Proliferation Fold Change NKL 1:2: reference of the scale not given here.
# Throughout, for Relative Proliferation Fold Change NKL 1:50: reference of the scale not given here.
Binder,NKL Ortho Proliferation Signal 1:2,NKL Ortho Proliferation Signal 1:10,NKL Ortho Proliferation Signal 1:50,Relative Proliferation Fold Change NKL 1:2,Relative Proliferation Fold Change NKL 1:10,Relative Proliferation Fold Change NKL 1:50
B1,6440,9120,8470,0.49 fold,0.62 fold,0.59 fold
B2,6790,9390,8690,0.52 fold,0.59 fold,0.56 fold
B3,55300,52500,24500,4.01 fold,3.44 fold,1.67 fold
B4,68600,75000,37400,3.97 fold,3.86 fold,2.06 fold
B5,62400,65700,31400,3.87 fold,3.32 fold,1.77 fold
B6,65300,73700,34800,4.19 fold,4.03 fold,1.93 fold
B7,59500,73700,45000,1 fold,1.73 fold,1.91 fold
B8,58900,66900,32200,3.94 fold,3.76 fold,1.92 fold

# Molecular target: T1, orthogonal hCD122 receptor (hoRb), …
# Assay: cell-based or functional assay
# Remark: another data set of the same source
Binder,3F8 Ortho Proliferation Signal 1:2,3F8 Ortho Proliferation Signal 1:10,3F8 Ortho Proliferation Signal 1:50,Relative Proliferation Fold Change 3F8 1:2,Relative Proliferation Fold Change 3F8 1:10,Relative Proliferation Fold Change 3F8 1:50
B1,736 cts/min,1070 cts/min,1540 cts/min,1.11 fold,1.27 fold,1.98 fold
B2,1010 cts/min,1270 cts/min,1370 cts/min,1.51 fold,1.35 fold,1.66 fold
B3,38500 cts/min,45700 cts/min,20300 cts/min,45.8 fold,34.2 fold,34.4 fold
B4,36100 cts/min,36200 cts/min,18900 cts/min,20.8 fold,45.5 fold,16 fold
B5,34200 cts/min,27200 cts/min,9790 cts/min,2.07 fold,2.99 fold,4.1 fold
B6,39200 cts/min,32200 cts/min,14200 cts/min,68.3 fold,28.2 fold,17.2 fold
B7,47300 cts/min,56600 cts/min,33100 cts/min,0.81 fold,1.23 fold,1.29 fold
B8,31800 cts/min,24400 cts/min,9460 cts/min,20.4 fold,19.4 fold,7.14 fold
